These results are taken from patent US20070092518A1 (published 2007).

Positions count from the first letter of the chain named.

First the molecules themselves.
B1: SEQ ID NO 49 (Fab, V domains shown)
VH: EVQLTESGGGLVQPGGSLRLSCAASQFIFSNHWMNWVRQAPGKGLEWIGEIRSKSSYGATHYAESVKGRFIISRDGNGNSLYLEMNSLKTEDTAEYYCAQNYYGSTYDYWGQGTLVTVS
VL: EIVLTQSPDFQSVTPKEKVTITCRASQFVGSSIHWYQQKPDQSPKLLIKYASESMSGVPSRFSGSGSGTDFTFTISSLEAEDAATYYCQQSHSWPFTFGPGTKVDIK
notes: Fab, E. coli lysate
B2: SEQ ID NO 87 (Fab, V domains shown)
VH: B1 VH with T5V, Q26G, I28T, Y57N, G58S, G78K, N79T, Q100R
VL: B1 VL
notes: Fab, E. coli lysate
B3: SEQ ID NO 91 (Fab, V domains shown)
VH: B1 VH with F27S, W33Y, S56I, Y57N, G58S, G78K, S80D, Q100R, Y107P
VL: B1 VL
notes: Fab, E. coli lysate
B4: SEQ ID NO 94 (Fab, V domains shown)
VH: B1 VH with T5V, A23R, Q26G, F27S, S56I, Y57N, G76D, N79T, Q100R
VL: B1 VL
notes: Fab, E. coli lysate
B5: SEQ ID NO 65 (Fab, V domains shown)
VH: B1 VH with T5V, A23R, Q26G, S56I, G76D, G78K
VL: B1 VL
notes: Fab, E. coli lysate
B6: SEQ ID NO 73 (Fab, V domains shown)
VH: EVQLVESGGGLVQPGGSLRLSCRASGSIFSNHYMNWVRQAPGKGLEWIGEIRSKSSYGATSYAESVKGRFIISRDDNKNDLTLEMNSLKTEDTAEYYCAQNYYGSTPDYWGQGTLVTVS
VL: B1 VL
notes: Fab, E. coli lysate
B7: SEQ ID NO 68 (Fab, V domains shown)
VH: B1 VH with A23R, S56I, Y57N, G58S, G76D, G78K, S80D, Y82T, Q100R
VL: B1 VL
notes: Fab, E. coli lysate
B8: SEQ ID NO 76 (Fab, V domains shown)
VH: B1 VH with A23R, Q26G, W33Y, S56I, Y57N, G76D, N79T, Q100R
VL: B1 VL
notes: Fab, E. coli lysate
B9: SEQ ID NO 79 (Fab, V domains shown)
VH: B6 VH with R23A, G26Q, S56I, S61H, D76G, Q100R
VL: B1 VL
notes: Fab, E. coli lysate
B10: SEQ ID NO 74 (Fab, V domains shown)
VH: B6 VH with V5T, R23A, I28T, Y33W, G58S, D80S, Q100R
VL: B1 VL
notes: Fab, E. coli lysate
B11: SEQ ID NO 54 (Fab, V domains shown)
VH: B1 VH with Q26G, F27S, W33Y, S56I, H61S, Y107P
VL: B1 VL
notes: Fab, E. coli lysate
B12: SEQ ID NO 89 (Fab, V domains shown)
VH: B6 VH with G26Q, S27F, I28T, S56I, Y57N, K78G, N79T, T82Y, Q100R, P107Y
VL: B1 VL
notes: Fab, E. coli lysate
B13: SEQ ID NO 92 (Fab, V domains shown)
VH: B6 VH with R23A, Y33W, Y57N, G58S, S61H, D76G, Q100R, P107Y
VL: B1 VL
notes: Fab, E. coli lysate
B14: SEQ ID NO 77 (Fab, V domains shown)
VH: B6 VH with R23A, I28T, S56I, G58S, K78G, D80S, T82Y, P107Y
VL: B1 VL
notes: Fab, E. coli lysate
B15: SEQ ID NO 67 (Fab, V domains shown)
VH: B6 VH with V5T, S27F, I28T, S56I, G58S, S61H, D76G, N79T, Q100R
VL: B1 VL
notes: Fab, E. coli lysate
B16: SEQ ID NO 81 (Fab, V domains shown)
VH: B6 VH with I28T, S56I, Y57N, G58S, D76G, K78G, N79T, P107Y
VL: B1 VL
notes: Fab, E. coli lysate
B17: SEQ ID NO 84 (Fab, V domains shown)
VH: B1 VH with T5V, F27S, I28T, G58S, G78K, S80D, Q100R
VL: B1 VL
notes: Fab, E. coli lysate
B18: SEQ ID NO 72 (Fab, V domains shown)
VH: B1 VH with A23R, Q26G, F27S, W33Y, S56I, G58S, N79T
VL: B1 VL
notes: Fab, E. coli lysate
B19: SEQ ID NO 88 (Fab, V domains shown)
VH: B6 VH with R23A, S27F, I28T, Y33W, Y57N, G58S, D76G, Q100R, P107Y
VL: B1 VL
notes: Fab, E. coli lysate
B20: SEQ ID NO 99 (Fab, V domains shown)
VH: B6 VH with R23A, Y57N, S61H, D80S, T82Y, P107Y
VL: B1 VL
notes: Fab, E. coli lysate
B21: SEQ ID NO 64 (Fab, V domains shown)
VH: B1 VH with I28T, S56I, G76D, G78K, N79T, Q100R, Y107P
VL: B1 VL
notes: Fab, E. coli lysate
B22: SEQ ID NO 66 (Fab, V domains shown)
VH: B6 VH with V5T, S27F, I28T, S56I, G58S, S61H, N79T, Q100R, P107Y
VL: B1 VL
notes: Fab, E. coli lysate
B23: SEQ ID NO 69 (Fab, V domains shown)
VH: B1 VH with T5V, A23R, I28T, Y57N, G58S, Q100R
VL: B1 VL
notes: Fab, E. coli lysate
B24: SEQ ID NO 51 (Fab, V domains shown)
VH: B6 VH with V5T, S27F, G58S, D76G, Q100R, P107Y
VL: B1 VL
notes: Fab, E. coli lysate
B25: SEQ ID NO 58 (Fab, V domains shown)
VH: B1 VH with Y57N, G58S, H61S, G76D, S80D
VL: B1 VL
notes: Fab, E. coli lysate
B26: SEQ ID NO 61 (Fab, V domains shown)
VH: B1 VH with T5V, A23R, Q26G, W33Y, S56I, S80D, Q100R
VL: B1 VL
notes: Fab, E. coli lysate
B27: SEQ ID NO 98 (Fab, V domains shown)
VH: B1 VH with A23R, Q26G, I28T, Y57N, G78K, N79T, S80D, Q100R, Y107P
VL: B1 VL
notes: Fab, E. coli lysate
B28: SEQ ID NO 83 (Fab, V domains shown)
VH: B6 VH with V5T, S27F, S56I, Y57N, K78G, D80S, T82Y, Q100R
VL: B1 VL
notes: Fab, E. coli lysate
B29: SEQ ID NO 97 (Fab, V domains shown)
VH: B6 VH with V5T, I28T, Y33W, Y57N, K78G, N79T, T82Y, P107Y
VL: B1 VL
notes: Fab, E. coli lysate
B30: SEQ ID NO 100 (Fab, V domains shown)
VH: B1 VH with A23R, W33Y, S56I, Y57N, G76D, G78K, N79T, S80D, Q100R
VL: B1 VL
notes: Fab, E. coli lysate
B31: SEQ ID NO 57 (Fab, V domains shown)
VH: B1 VH with Q26G, G58S, G76D, N79T
VL: B1 VL
notes: Fab, E. coli lysate
B32: SEQ ID NO 52 (Fab, V domains shown)
VH: B1 VH with T5V, A23R, Q26G, F27S, G58S, Y82T, Q100R
VL: B1 VL
notes: Fab, E. coli lysate
B33: SEQ ID NO 75 (Fab, V domains shown)
VH: B6 VH with S27F, I28T, Y33W, S56I, G58S, S61H, D80S, Q100R
VL: B1 VL
notes: Fab, E. coli lysate
B34: SEQ ID NO 85 (Fab, V domains shown)
VH: B1 VH with A23R, Q26G, Y57N, H61S, N79T, Y82T
VL: B1 VL
notes: Fab, E. coli lysate
B35: SEQ ID NO 95 (Fab, V domains shown)
VH: B6 VH with V5T, I28T, Y57N, G58S, N79T, D80S, T82Y, Q100R, P107Y
VL: B1 VL
notes: Fab, E. coli lysate
B36: SEQ ID NO 93 (Fab, V domains shown)
VH: B6 VH with V5T, S27F, I28T, S61H, K78G, N79T, T82Y
VL: B1 VL
notes: Fab, E. coli lysate

T1 sequence (P01375 77-233 limits assumed): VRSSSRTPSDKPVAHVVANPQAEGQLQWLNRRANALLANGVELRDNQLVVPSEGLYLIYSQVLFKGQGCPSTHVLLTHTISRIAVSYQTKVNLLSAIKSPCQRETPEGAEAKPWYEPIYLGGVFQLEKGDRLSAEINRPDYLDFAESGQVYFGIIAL

The test addresses T1, human tumor necrosis factor-α (rHuTNF-alpha, Biosource) (human, UniProt P01375 77-233).
T1 construct: Bought recombinant protein coated on ELISA plates; The TNFα of the Biacore assay is not described further; also called TNFα; human TNFα
Description: solid-phase ELISA, Fab lysate on coated rHuTNF-alpha. The procedure: The Fab libraries were cloned into pTrcHis2A (Cat. No. V365-20, Invitrogen, Carlsbad, Calif.). Proteins were expressed in E. coli and solid-phase ELISA was used to assess Fab binding to human TNFα. Briefly, 96-well plates were coated overnight at 4° C. with 1 μg/ml of rHuTNF-alpha (Biosource, Camarillo, Calif.) in Carbonate-bicarbonate buffer, pH9.4. After washing in PBS with 0.05% (w/v) Tween-20, the wells were blocked with 1% (w/v) BSA in PBS for 1 hour at room temperature. After washing, plates were incubated with transformed E. coli cell lysate diluted in the assay buffer (1% BSA and 0.05% Tween-20 in 10 mM PBS) for 2 hours at room temperature. Various concentrations of infliximab (0.5, 1 and 2 ng/ml) were used as positive anti-Human Kappa Light Chain Biotin/anti-penta-His Biotin control. Plates were washed and incubated with ImmunoPure Goat Anti-Human Kappa Chain, Biotin Conjugated (Cat. No. 31780, Pierce Biotechnology, Rockford, Ill.) and Penta-His Biotin Conjugate (Cat. No. 34440, QIAGEN, Valencia, Calif.) diluted 1:2000 in the assay buffer for 1 hour at room temperature. Following another washing step, plates were probed for 1 hour at room temperature with 100 μL/well of Streptavidin POD (Cat. No. 1089153, Roche Applied Science, Indianapolis, Ind.) diluted 1:4000 in the assay buffer. Plates were further washed and then incubated with 3,3′,5,5′-tetramentylbenzidine (TMB, Cat. No. 34028, Pierce Biotechnology) for 30 minutes. Substrate development was stopped by addition of 100 μL/well TMB Stop Solution (Cat. No. 50-85-05, KPL, Gaithersburg, Md.) and the absorbance was measured at 450 nm via an automated plate spectrophotometer.
With B1, the binding result is “binds”.
The value for B2 was “binds”.
For the molecule B3, the binding result is “binds”.
In the case of B4 it was “binds”.
The value for B5 was “binds”; that for B6 was “binds”.
In the case of B7 it was “binds”; in that of B8, “binds”.
For B9, the binding result is on record as “binds”.
The value for B10 was “binds”.
Consider B11, for which the binding result is “binds”.
In the case of B12 it was “binds”; in that of B13, “binds”; in that of B14, “binds”.
In the case of B15 it was “binds”; in that of B16, “binds”.
In the case of B17 it was “binds”; in that of B18, “binds”.
For B19, the binding result is given as “binds”.
The value for B20 was “binds”; that for B21 was “binds”.
The value for B22 was “binds”; that for B23 was “binds”.
The value for B24 was “binds”.
With B25, the binding result is recorded as “binds”.
The value for B26 was “binds”.
The value for B27 was “binds”; that for B28 was “binds”; that for B29 was “binds”.
The value for B30 was “binds”; that for B31 was “binds”.
As to B32, the binding result is “binds”.
B33: the binding result is on record as “binds”.
The value for B34 was “binds”.
The value for B35 was “binds”; that for B36 was “binds”.
